Assay results: patent US20200147120A1 (NATIONAL UNIVERSITY CORPORATION CHIBA UNIVERSITY, published 2020)

Legend:
Brm = molecular target: T1, Brm (human, UniProt P51531 1-1590, limits assumed); test: binding test of DPF2 truncation mutants; format not described
T1 construct: also called hBRM

BRG1 = BRG1 (human, UniProt P51532 1-1647); test: as above
Chain of BRG1 (P51532 whole entry): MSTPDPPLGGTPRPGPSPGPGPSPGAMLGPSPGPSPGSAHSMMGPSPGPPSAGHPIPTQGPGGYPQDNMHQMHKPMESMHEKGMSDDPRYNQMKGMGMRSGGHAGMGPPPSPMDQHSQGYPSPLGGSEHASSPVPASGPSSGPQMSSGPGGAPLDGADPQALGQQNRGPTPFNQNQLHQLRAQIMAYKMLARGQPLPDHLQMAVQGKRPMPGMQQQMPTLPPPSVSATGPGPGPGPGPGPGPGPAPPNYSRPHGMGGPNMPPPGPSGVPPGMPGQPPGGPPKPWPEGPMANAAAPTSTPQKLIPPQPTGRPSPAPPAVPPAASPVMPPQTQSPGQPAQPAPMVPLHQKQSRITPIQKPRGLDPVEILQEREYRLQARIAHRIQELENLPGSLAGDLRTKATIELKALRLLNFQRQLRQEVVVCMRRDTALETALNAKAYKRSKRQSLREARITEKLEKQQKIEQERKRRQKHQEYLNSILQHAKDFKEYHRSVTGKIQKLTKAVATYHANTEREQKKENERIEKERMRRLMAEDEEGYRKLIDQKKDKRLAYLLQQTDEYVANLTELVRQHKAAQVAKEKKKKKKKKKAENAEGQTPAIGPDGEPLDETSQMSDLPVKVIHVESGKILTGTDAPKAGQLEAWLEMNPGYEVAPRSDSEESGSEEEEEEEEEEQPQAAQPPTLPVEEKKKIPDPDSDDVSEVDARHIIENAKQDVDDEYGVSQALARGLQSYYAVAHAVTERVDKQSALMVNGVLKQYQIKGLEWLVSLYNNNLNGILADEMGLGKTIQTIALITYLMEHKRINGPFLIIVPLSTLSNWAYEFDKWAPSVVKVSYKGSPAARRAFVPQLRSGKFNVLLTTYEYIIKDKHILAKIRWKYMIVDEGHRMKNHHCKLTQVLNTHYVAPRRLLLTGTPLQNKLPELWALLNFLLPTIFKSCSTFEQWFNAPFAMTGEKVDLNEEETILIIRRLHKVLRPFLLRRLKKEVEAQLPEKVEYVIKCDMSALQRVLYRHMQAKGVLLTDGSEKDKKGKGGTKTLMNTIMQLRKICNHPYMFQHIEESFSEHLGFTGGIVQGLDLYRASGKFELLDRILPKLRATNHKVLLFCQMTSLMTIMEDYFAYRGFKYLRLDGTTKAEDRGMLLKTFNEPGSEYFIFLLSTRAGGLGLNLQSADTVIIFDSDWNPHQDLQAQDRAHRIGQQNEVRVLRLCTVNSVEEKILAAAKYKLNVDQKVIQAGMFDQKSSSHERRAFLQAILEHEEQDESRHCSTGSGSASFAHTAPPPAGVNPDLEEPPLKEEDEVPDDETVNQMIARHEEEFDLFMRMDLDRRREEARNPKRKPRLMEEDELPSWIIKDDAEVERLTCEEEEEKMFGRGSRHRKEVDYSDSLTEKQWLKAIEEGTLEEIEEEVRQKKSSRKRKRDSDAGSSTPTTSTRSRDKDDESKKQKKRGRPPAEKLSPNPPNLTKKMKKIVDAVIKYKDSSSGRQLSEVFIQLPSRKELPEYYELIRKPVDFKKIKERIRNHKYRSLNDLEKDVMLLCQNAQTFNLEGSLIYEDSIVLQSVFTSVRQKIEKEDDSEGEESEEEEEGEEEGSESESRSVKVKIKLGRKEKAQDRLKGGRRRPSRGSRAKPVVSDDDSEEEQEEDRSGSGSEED

T1 sequence (P51531 whole entry, the tested form may be a part): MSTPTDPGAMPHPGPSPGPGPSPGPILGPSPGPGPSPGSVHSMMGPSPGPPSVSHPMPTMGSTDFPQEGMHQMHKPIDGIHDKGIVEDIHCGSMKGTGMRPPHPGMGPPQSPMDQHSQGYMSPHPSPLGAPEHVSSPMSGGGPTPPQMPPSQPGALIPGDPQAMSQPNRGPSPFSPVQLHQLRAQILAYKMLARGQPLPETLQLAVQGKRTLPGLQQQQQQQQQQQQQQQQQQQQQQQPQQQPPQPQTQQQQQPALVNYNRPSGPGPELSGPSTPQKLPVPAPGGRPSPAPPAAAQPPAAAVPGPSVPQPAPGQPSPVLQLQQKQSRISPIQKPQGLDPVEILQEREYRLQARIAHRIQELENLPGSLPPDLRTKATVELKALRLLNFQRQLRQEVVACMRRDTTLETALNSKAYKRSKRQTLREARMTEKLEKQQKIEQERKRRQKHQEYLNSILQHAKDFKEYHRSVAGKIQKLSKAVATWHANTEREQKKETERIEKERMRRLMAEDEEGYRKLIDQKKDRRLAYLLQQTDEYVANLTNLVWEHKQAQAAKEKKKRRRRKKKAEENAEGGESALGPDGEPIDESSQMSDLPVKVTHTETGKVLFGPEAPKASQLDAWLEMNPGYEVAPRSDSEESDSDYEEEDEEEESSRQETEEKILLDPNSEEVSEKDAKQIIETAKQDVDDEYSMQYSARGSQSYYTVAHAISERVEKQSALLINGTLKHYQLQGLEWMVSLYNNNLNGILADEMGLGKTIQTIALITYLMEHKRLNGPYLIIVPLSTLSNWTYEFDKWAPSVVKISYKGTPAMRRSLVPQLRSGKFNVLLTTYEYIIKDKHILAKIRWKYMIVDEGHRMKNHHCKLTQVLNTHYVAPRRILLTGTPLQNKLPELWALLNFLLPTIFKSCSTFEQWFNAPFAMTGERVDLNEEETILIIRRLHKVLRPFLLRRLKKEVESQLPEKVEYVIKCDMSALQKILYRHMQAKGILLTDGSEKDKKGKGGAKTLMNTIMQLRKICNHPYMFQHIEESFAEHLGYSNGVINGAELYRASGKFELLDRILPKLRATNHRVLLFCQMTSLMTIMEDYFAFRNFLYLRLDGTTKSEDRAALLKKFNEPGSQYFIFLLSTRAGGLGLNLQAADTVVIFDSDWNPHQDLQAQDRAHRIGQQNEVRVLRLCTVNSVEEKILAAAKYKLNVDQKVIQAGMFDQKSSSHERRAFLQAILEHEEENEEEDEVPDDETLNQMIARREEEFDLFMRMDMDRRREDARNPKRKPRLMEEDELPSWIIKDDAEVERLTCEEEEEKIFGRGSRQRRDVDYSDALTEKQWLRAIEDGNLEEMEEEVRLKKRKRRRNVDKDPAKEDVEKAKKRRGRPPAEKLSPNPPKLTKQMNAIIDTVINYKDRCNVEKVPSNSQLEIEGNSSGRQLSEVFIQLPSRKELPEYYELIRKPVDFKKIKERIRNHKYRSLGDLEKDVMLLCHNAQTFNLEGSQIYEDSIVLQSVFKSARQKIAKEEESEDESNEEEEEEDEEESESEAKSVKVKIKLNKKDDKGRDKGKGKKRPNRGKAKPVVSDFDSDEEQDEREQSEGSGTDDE

binding result (Brm): binds | binding result (BRG1): binds
B1: DPF2-CT1 (CT1 peptide of DPF2, amino acid residues 1 to 84) (peptide)
peptide: MAAVVENVVKLLGEQYYKDAMEQCHNYNARLCAERSVRLPFLDSQTGVAQSNCYIWMEKRHRGPGLASGQLYSYPARRWRKKRR
notes: One of a series of truncation mutants of DPF2
